Data as given in patent US8895526B2, “Identification of RNAI targets and use of RNAI for rational therapy of chemotherapy-resistant leukemia and other cancers” (Cold Spring Harbor Laboratory, priority 2009, dated 2014).

Legend:
[1] = tested on: tet-on competent MLL/AF9+Nras AML; test: Pooled negative selection RNAi screening (deep sequencing); format: cell-based, mouse; conditions: deep sequencing reads, On Dox compared to T0
Method in brief: (§1)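 A pool of 1230 tet-regulated shRNAs (TRMPV-type) was retrovirally transduced at mostly single copy and ~1000-fold representation into tet-on MLL/AF9+Nras AML cells or immortalized murine embryonic fibroblasts, then cultured on or off doxycycline. shRNA-expressing cells were FACS-sorted, and shRNA representation was quantified by PCR and deep sequencing of genomic DNA, with depletion on dox compared against t0 and off dox.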

[2] = tested on: immortalized murine embryonic fibroblasts (Mef); test: as above; format: cell-based; conditions: deep sequencing reads, on dox compared to initial representation
Method in brief: as §1

Molecule | Fold depletion in AML [1] | Fold depletion in Mef [2] [Fold]
Ptpn18.247: shRNA, SEQ ID NO: 170 (nucleic acid) TGCTGTTGACAGTGAGCGCCACGAACAAGAACCGCTACAATAGTGAAGCCACAGATGTATTGTAGCGGTTCTTGTTCGTGTTGCCTACTGCCTCGGA | 8.13 Fold | 0.21
Klf5.581: shRNA, SEQ ID NO: 135 (nucleic acid) TGCTGTTGACAGTGAGCGCTCCGATAATTTCAGAGCATAATAGTGAAGCCACAGATGTATTATGCTCTGAAATTATCGGAATGCCTACTGCCTCGGA | 9.37 Fold | 1.01
Bcl2.1422: shRNA, SEQ ID NO: 95 (also SEQ ID NO: 41) (nucleic acid) TGCTGTTGACAGTGAGCGACCGGGAGAACAGGGTATGATATAGTGAAGCCACAGATGTATATCATACCCTGTTCTCCCGGCTGCCTACTGCCTCGGA | 1,686.19 Fold | 2.71
Acpp.818: shRNA, SEQ ID NO: 87 (nucleic acid) TGCTGTTGACAGTGAGCGAAAAGAGAAATCTCGACTCCAATAGTGAAGCCACAGATGTATTGGAGTCGAGATTTCTCTTTCTGCCTACTGCCTCGGA | 9.00 Fold | 0.85
Ogg1.395: shRNA, SEQ ID NO: 157 (nucleic acid) TGCTGTTGACAGTGAGCGACAGATCAAGTATGGACACTGATAGTGAAGCCACAGATGTATCAGTGTCCATACTTGATCTGCTGCCTACTGCCTCGGA | 8.69 Fold | 1.44
Myb.2652: shRNA, SEQ ID NO: 144 (also SEQ ID NO: 53) (nucleic acid) TGCTGTTGACAGTGAGCGCCCCAAGTAATACTTAATGCAATAGTGAAGCCACAGATGTATTGCATTAAGTATTACTTGGGATGCCTACTGCCTCGGA | 15.46 Fold | 1.14
Centa1.940: shRNA, SEQ ID NO: 106 (nucleic acid) TGCTGTTGACAGTGAGCGCCCGAAGGCTCATGTACTTCAATAGTGAAGCCACAGATGTATTGAAGTACATGAGCCTTCGGTTGCCTACTGCCTCGGA | 8.24 Fold | 1.13
AU018778.350: shRNA, SEQ ID NO: 94 (nucleic acid) TGCTGTTGACAGTGAGCGCCTGAAGATTGCCTGTACCTAATAGTGAAGCCACAGATGTATTAGGTACAGGCAATCTTCAGATGCCTACTGCCTCGGA | 8.45 Fold | 1.18
Bcl2.2169: shRNA, SEQ ID NO: 96 (also SEQ ID NO: 42) (nucleic acid) TGCTGTTGACAGTGAGCGACAGTAGAAATTATATGCATTATAGTGAAGCCACAGATGTATAATGCATATAATTTCTACTGCTGCCTACTGCCTCGGA | 12.61 Fold | 1.62
Fas.1344: shRNA, SEQ ID NO: 118 (nucleic acid) TGCTGTTGACAGTGAGCGCGAGGAGAATTATAAACTGAAATAGTGAAGCCACAGATGTATTTCAGTTTATAATTCTCCTCATGCCTACTGCCTCGGA | 8.57 Fold | 1.36
Myb.670: shRNA, SEQ ID NO: 145 (also SEQ ID NO: 54) (nucleic acid) TGCTGTTGACAGTGAGCGACACAACCATTTGAATCCAGAATAGTGAAGCCACAGATGTATTCTGGATTCAAATGGTTGTGCTGCCTACTGCCTCGGA | 26.46 Fold | 1.28
Nln.1429: shRNA, SEQ ID NO: 151 (nucleic acid) TGCTGTTGACAGTGAGCGAAAGGATAAAGCTACTGGAGAATAGTGAAGCCACAGATGTATTCTCCAGTAGCTTTATCCTTCTGCCTACTGCCTCGGA | 8.03 Fold | 1.61
Hexa.1510: shRNA, SEQ ID NO: 131 (nucleic acid) TGCTGTTGACAGTGAGCGAGAGCAGTAACCTGACAACTAATAGTGAAGCCACAGATGTATTAGTTGTCAGGTTACTGCTCCTGCCTACTGCCTCGGA | 1,777.36 Fold | 2.13
Smpd2.592: shRNA, SEQ ID NO: 183 (nucleic acid) TGCTGTTGACAGTGAGCGACAGCATGTCTACAGTCTGAATTAGTGAAGCCACAGATGTAATTCAGACTGTAGACATGCTGGTGCCTACTGCCTCGGA | 8.63 Fold | 2.89
Mgst1.549: shRNA, SEQ ID NO: 142 (nucleic acid) TGCTGTTGACAGTGAGCGCAAGGAGCAGACTGTACTTGTATAGTGAAGCCACAGATGTATACAAGTACAGTCTGCTCCTTATGCCTACTGCCTCGGA | 9.14 Fold | 1.09
Bcl2.906: shRNA, SEQ ID NO: 98 (nucleic acid) TGCTGTTGACAGTGAGCGCGCACAGGAATTTTGTTTAATATAGTGAAGCCACAGATGTATATTAAACAAAATTCCTGTGCATGCCTACTGCCTCGGA | 12.28 Fold | 0.98
Dnajc10.2057: shRNA, SEQ ID NO: 113 (nucleic acid) TGCTGTTGACAGTGAGCGCTCCAACGACAGTGGTATTCAATAGTGAAGCCACAGATGTATTGAATACCACTGTCGTTGGATTGCCTACTGCCTCGGA | 8.99 Fold | 1.47
Cdc42ep3.1922: shRNA, SEQ ID NO: 104 (nucleic acid) TGCTGTTGACAGTGAGCGCAACAAGCAAGGTATTACTGTATAGTGAAGCCACAGATGTATACAGTAATACCTTGCTTGTTTTGCCTACTGCCTCGGA | 315.30 Fold | 0.38
Nrp1.479: shRNA, SEQ ID NO: 155 (nucleic acid) TGCTGTTGACAGTGAGCGCACCCTCATTCTTACCATCCAATAGTGAAGCCACAGATGTATTGGATGGTAAGAATGAGGGTATGCCTACTGCCTCGGA | 8.19 Fold | 0.83
Pkm2.2154: shRNA, SEQ ID NO: 166 (nucleic acid) TGCTGTTGACAGTGAGCGCGCCCACCTGAATGTCAATAAATAGTGAAGCCACAGATGTATTTATTGACATTCAGGTGGGCATGCCTACTGCCTCGGA | 9.63 Fold | 1.92
Ntrk3.167: shRNA, SEQ ID NO: 156 (nucleic acid) TGCTGTTGACAGTGAGCGCCTGCAGCAAGACTGAGATCAATAGTGAAGCCACAGATGTATTGATCTCAGTCTTGCTGCAGATGCCTACTGCCTCGGA | 8.88 Fold | 1.76
Myb.2572: shRNA, SEQ ID NO: 143 (also SEQ ID NO: 52) (nucleic acid) TGCTGTTGACAGTGAGCGCTCCATGTATCTCAGTCACTAATAGTGAAGCCACAGATGTATTAGTGACTGAGATACATGGAATGCCTACTGCCTCGGA | 67.47 Fold | 0.92
Nrg4.1358: shRNA, SEQ ID NO: 153 (nucleic acid) TGCTGTTGACAGTGAGCGCCAGACATGTTGAAGTGAATAATAGTGAAGCCACAGATGTATTATTCACTTCAACATGTCTGTTGCCTACTGCCTCGGA | 8.11 Fold | 0.54
Ccr1.733: shRNA, SEQ ID NO: 101 (nucleic acid) TGCTGTTGACAGTGAGCGCCTGGATTGACTACAAGTTGAATAGTGAAGCCACAGATGTATTCAACTTGTAGTCAATCCAGATGCCTACTGCCTCGGA | 472.15 Fold | 1.18
Tex14.3976: shRNA, SEQ ID NO: 185 (nucleic acid) TGCTGTTGACAGTGAGCGCCAGGAGCTACTTGATGAAATTTAGTGAAGCCACAGATGTAAATTTCATCAAGTAGCTCCTGATGCCTACTGCCTCGGA | 9.60 Fold | 1.90
Rock2.3898: shRNA, SEQ ID NO: 174 (nucleic acid) TGCTGTTGACAGTGAGCGCCAGATTCTATATGCCAATGAATAGTGAAGCCACAGATGTATTCATTGGCATATAGAATCTGATGCCTACTGCCTCGGA | 8.10 Fold | 1.04
Slc11a1.307: shRNA, SEQ ID NO: 178 (nucleic acid) TGCTGTTGACAGTGAGCGCAACATTGAGTCCGACCTTCAATAGTGAAGCCACAGATGTATTGAAGGTCGGACTCAATGTTTTGCCTACTGCCTCGGA | 9.52 Fold | 0.41
Mcl1.2018: shRNA, SEQ ID NO: 140 (also SEQ ID NO: 45) (nucleic acid) TGCTGTTGACAGTGAGCGCGGACTGGTTATAGATTTATAATAGTGAAGCCACAGATGTATTATAAATCTATAACCAGTCCATGCCTACTGCCTCGGA | 11.48 Fold | 3.02
Gart.2713: shRNA, SEQ ID NO: 127 (nucleic acid) TGCTGTTGACAGTGAGCGAACCAGGGTAATTAATCACAAATAGTGAAGCCACAGATGTATTTGTGATTAATTACCCTGGTGTGCCTACTGCCTCGGA | 8.73 Fold | 2.22
